From the DeepSol protein solubility set

Test: soluble on expression in E. coli; label from the status in PepcDB or PDB records

Soluble on expression in E. coli, not soluble:
MGSDKIHHHHHHMSIDYSQKIPNNVNLADDRALQRALEHWQPAFLDWWRDMGPEGSHNFDVYLRTAVSVDPSGWAHFEHVKMPDYRWGIFLQPADPARQIHFGEHKGEAAWQDVPGEHRANLRRIIVTQGDTEPASVEQQRHLGLTAPSLYDLRNLFQVNVEEGRHLWAMVYLLHRYFGRDGREEAEALLDRRSGDQDNPRILGAFNERTPDWLSFFMFTYFTDRDGKFQLCALAESGFDPLARTTRFMLTEEAHHMFVGESGVSRVIQRTCEVMRERDIRDPADVRAAGVIDLETIQRYLNFHYSVTIDLFGADQSSNAATFYSAGLKGRFEEGKRTDDHVLKSDVYRVLEVRDGQLGEREVPMLNALNEVLRDDYIRDSIGGVARWNKVIEKHGIPFKLTVPHKAFNRKIGTLSNVHVSPTGELLTEAQWQANERNWLATEEDRAYVASLMGRVTEPGKYANWIAPPAVGVNRQPMDFEYVRFN
MGSDKIHHHHHHMSIPLAFIICTEPGRLESQSLMLASSIRKFCGNLKDTPIYSFHPRVGEPISHQTQEAFAALQVIHQQIPINQEFHEYYLANKPLVCAYAEQNIDAEILVFLDSDKCLFAEPTEFLLPENCNVRVRPEYGQGIGSTGSQDPQEWYWQRLYQVLGVKREIFVNTPIGNKRIRAYWNSGLVAVRRSAGIFTAWKENFTKVMHLDITPPQGIYFVEQSVLSVTLCALVDNIEHFSLNYSYPLPLHNRLSPELRLQDWDDITSIHYFNLFFYNDWNTQIKKLKKFNITSDKYKWLSQEVVRLNMSRTSVLHRYMLAIRRIEQKLQKFNIKINLSSLIEKTAKF
MGSDKIHHHHHHMSIRIGISGWRYARWRGTFYPTGLAQRRELAYAGRCFPSVEINGSFYSLQRPESYQSWHDETPDDFVFAVKGPRFVTHMKRLRDCEQALANFFASGVLRLGEKLGPILWQLPPTLRFDDAVLDAFLSSLPRDTEAALALARKRDTTLMHGRTALSIDRKRPLRHALEMRHPSFCDPSCMKLLRKHKVGVVVADTAGKFPYLEDVTADFVYLRLHGDAQLYASGYSDHALDRWGERIAAWAAGGEPSDAQRVGPRASKRARRDVYCYFDNDMKVHAPFDARGLMQRLDLPTDCPAREEVV
MGSDKIHHHHHHMSKGTIRVLQLYPRDMNIYGDWGNALVLQQRLRWHGYTPELLEYNVGDEFPAGVDLIVGGGGQDSGQLVIQDDLLSRESTLKELAEAGTPMLLICGMYQLFGKFFKTRTGSVIPGIGVLDVETHGTDERLIGNVTVSSPEFGDVLGYENHSGQTTLGPGVRPLGSTPKGIGNNSKDGQEGARYRNIVASYLHGSLLPKNPAIADFLIRTAVERKYGSFTPGAPDDRYAVMAREHAARRPR
MGSDKIHHHHHHMSLAVTYTRAMIGVQAPDVYIEVHISSGLPALTLVGLPETTVKEARDRVRSALINCGFTFPAKRITVNLAPADLPKEGGRYDLPIALAILAASEQIDGEKLNRYEFLGELGLSGTLRGVNGAIPAALEAIKAGRQLILPDDNKREMTLIPQGEALMAGHLLQVCAFLSGEEELLSCSDMTPVPQPAEDTLDLKDIIGQEQAKRALEIAAAGGHNLLLLGPPGTGKTMLASRLGNLMPPLSDEEALESAAINSLINIDATMTRWRARPFRAPHHSSSMAALVGGGSLPKPGEISLAHNGVLFLDELPEFERRVLDSLREPLESGEIIISRTRAKVCYPARVQLVAAMNPSPSGHYQGIHNRLPAQQILRYLSKLSGPFLDRFDLSIEVPLLPPGVLSQQHYQGESSATIRERVLIARQIQLKRANKINALLTSREIERHCKLEMADAAYLEDVMNKLGLSVRAWHRILKVARTIADLGDRDNIEKKHLAEALSYRCMDRLLIQLHKSLE
MGSDKIHHHHHHMSLPLYQQISDDLKQKIVTKTFKSGDQLPTEKELSETYSVSRITAKRALTELEQLGLVSRTRGKGTFVQELNKNHTKLLKRVLFIIPFEGMSFGDFTQGLVPALKVENTTVFITYESYLKENTADDIKENFDGLIYYPMYTEDYLDILLELSLQNFPVVLLDKQIYDLGFPCVSSDNFNGGEQAAQALLNLGHKRIAFVASNDTHHPQTTRNRYLGYVKVLKEQGIKFHTTLDDSLYTESSVLELIHNEKVTGLICENDLVALQTMKTLQDSHFSVPNDISIIGFDDIQAASLSNPPLTTIAQDFIGMGRIAGELLLDWIKSGQTPKDVKVPINLIKRKTTEELK
MGSDKIHHHHHHMSLSRLSIDAFRNIDSAQLAPGAGLNLIYGHNGSGKTSILEAIYFLGMGRSFRSHLSQRVIQNDADCLTLFAVAEGQAGDSRIGLRRHRSGDTEVKIDGEKVKRLSQLAEALPIQVITPESFSLLFEGPSARRQFIDWGAFHASKQFHLAWMNTRRILKQRNQLLRDGASYEHIAFWDKELIRYALEVTAIRNDYVGSLNGVLKGIIGEFLPDVDIRVSFTRGWDSKTDFSELLQSQYARDLAIGHTVSGPHKADLRLRVGNLPAQDALSRGQLKLLVCALRIAQGKLLKQQIDKHSIYLVDDLPSELDAKHRQLLLKELIDTGAQLFVTAIEPSAIVDSLPVPPDRMFHVQAGRVTQTK
MGSDKIHHHHHHMSLTNVLFLAEELRVGGAETYFYKIENKIDLKKINFYTAAVNGRCFDKLNNKHMYFEYEKGLFSKIKTIKKIVISKNINVIHANSLRLAIISSIVKKLYKKDLKIVYTKHNLTILEKIHTKLFSAFVNKNVDIVLAVCNKDRDNMISIGVSEEKVKVIPNSIDLKHFKFNSKYLRDAGKDFKVGMLSRLSKEKNHEFFLDIAEKADFRALIGGDGPLREEINNRIEKSNLKKKVKMLGNIENSYEFLSSVDVMLLVSTREIFPMTLLEAMAVGTIVISVDIGGIRDCVINDKTGYVIDDYQSEKFITKISDILSDYDKNKELISAARELVENSFNLDITIDELQRLYGEVGL
MGSDKIHHHHHHMSNIKVLIQASSRSWAGGRDICMGLVNGEITVARTIKRALEAFPAAQLCLVAPEFDQDGELGGVIEYVKDKRLKAFYGFDESPLKRMIAASIELADNDYIVRIDGIHFCFDVDLSQKMLALALQKKLDCIKLPADFPVHFSSEVFRVGALRELVKLLDKPELEKFNIHPKIYFELNRYNYNFEYLRTLPQYSDEYLSECRKLAKDIYDIPRLEVGSKRTIWADTPSYHYQLALEYLNSNMKVLDIACGNGYGVRMMSTFLAEVHGADLDPEIINLAKAYTHEKNVEYYIEDITNLSFEDDSYDAVTCFETLEHIPEDDCLKELRRIIRPGGMLVLSTPQNSYGHIPVNACHIVEYSLDALLKLVGRYFLVVKVIGIKAGTIHSDADPYGTNTVLVCIKPF
MGSDKIHHHHHHMSNISEIVVELFKEASIYLPDDVKSKLKHAEEVECGACKDTLQAIELNNKIAETKQIPLCQDTGVPVIFLKIGTGISSERIIEIIKEIESGVKRATAEVPLRPNVVNPITRENLGTNTGMGAPFINFEFSENLNNEIEISVFPKGAGSENMSALKMLTPSEGLMGIKKFILETVANAGGKPCPPIVLGIGIGGTADISLKLAKKALLRDIGNRNPEKTIENLEKELLDSINQLGIGTMGLGGKITALDVFIEVNGCHTASLPVGICIQCWADRKAKRKIKL
MGSDKIHHHHHHMSNQTLKKISELDVFCLMVFKVIFQTGHANIAAKQLNVSAPKISRCLNMLRATFDDELFYRRQLGLKPTPMAEFLYEPVCQFCEAVLKIEQSISEKSSELASERLRVAVTPSIMASLSLAFSRSNARDAFSQLQFVIWGDDSADQIHNGELDMGVTFDACNEHPLSVEALGCLSGVCLAANEEHAIWSQSEPLTLETICRHPFLCLDGKGFNDKIDPLEVFARQNGADIDSIERVSSRDEWYSHLLTMNSVAFLPCSEAEICGALPGIRVVRLSDEEVGRLHGESMSPQYLLLENPAEYRRYSLEQRELIIQLIKQLLVKC
MGSDKIHHHHHHMSQINASASGTYAFDDQFKVNRLGYGTMQLTGEGTWGPYDDPNNAVSVIKKAVDLGINFFDTADSYGPWFADRYLAEGLKSASNRDEIFISDKVGQTRQGPGVWTPHGEPNYLRQQVEVSLMTLGIDHEDLLFLHRIDSHFSVAEQVGELKKLQDEGKIKHIGLSQVTVGQIKEAQKYAKIDAVENLYNVSDHRDDDVLDYAESQHMAFVPWFPLNTEKLTGANSPLAKIANKYKASPAQIALAWLLKRSGNVLPIPGTSSVAHLEDNVAAASIKLSDDDFKAITNLGVSNR
MGSDKIHHHHHHMSQLDMKMKLKQYEQTVIEYLGAQGGHFIVASDDQTFVGILRTTLLKQLAISGDPLTSVTDPDYILKVIRDTSLRRKHLVVFIERMMQGKDTSMLVRQMKNTFANVKIIILTGETERQRLVLLHEIGADNFISKPISINTLIEKIAFTIKPQGKLGQLIDAAKALVAQGNFETALKAARKILEVKPNSAAGYLVMGDAWQGLGKLDKARESFEQASEHANLYMEPLKKLAELHKLTGDMNERLRYLERLDQLSPLNVERKVDMGEIHVELGNEERAEELFETAVQQATKDALNYIGEISEKIAAVYSSRDPHKAEKYYRQALDAKGSHLDHTDIATFNRLGIALRRQGKWQQAIEEYEKALHITPDDPNLMYNMSMAYAEGRQFDKACSIVMRIRQITPSFGSMDKTLSYNMGIIFSRGRQPADARVLFENALRLDPSFEKAQKALENLES
MGSDKIHHHHHHMSQLVRPTLELPAGRRKVLLHSCCAPCSGEVMEAMTASGIDYAIYFYNPNIHPVKEYEIRKNENIRFAEEHGIEFIDADYDMDNWFERVKGMENEPERGIRCTACFDMRFERTALYAHEHGFDTITSSLGISRWKDMNQINGCGERAAARYDDLVYWTYNWRKGGGSQRMIEISKRENFYQQEYCGCVYSLRDTNRHRRAQGRERIHLGVKFYGVEEKL
MGSDKIHHHHHHMSQQLTFADSEFSSKRRQTRKEIFLSRMENLLPWSQLLDVIEPFYPKVGNGRRPYPLETMFRIHCMQQWYSLSDEATEDALYEIASMRQFALLSLDKAIPDRTTIMNFRHLLEKHKLTRKLFKTVNQWLSDSGVMMTQGTLVDATIIEAPSSTKNKNNERDPDMHQTKKGNQWHFGMKAYIGVDAKSGLTHTLVTTAANEHDLNQLDNLLHGEEEFVSGDAGYQGAQKREELKDTNVEWLIAERPGKIRALKKRPRKNKTIINIEYLKASIRAKVEHPFRIIKCQFGFIKARYKGLMKNDSQLAMLFTLANLFTVDQMLRRQPRSV
MGSDKIHHHHHHMSRFVLITPDVSFDGRLRQAVAGGLQGGVQTFFTSLLPADPNDLFAHLDQERPEVLILGPDVPVEEALRLATVMNVRFPELSVILASEPDPDFILQAMRAGIRDILSPDSDAAQIRVLLERASQQFAGRYRVQAAAPMTDTNKGLVIGVFSPKGGVGKTTIATNIAVGLGKIAPMSVVIVDLDLQFGDVASALYLDPQHTVTDAVSPAASQDSLVLKAFLTVHPASIYAVCAPPTPVDADEITPEQVSRLLEQLSEQFQYVVVDTAPGLPEIGLAAMEQCTDVVWVSGMDIPSVRGLRSGLDVLRQLDILPETRHVVLNMADSKLGLTVQDLESTIGAPVDVSIPRSRAVALSTNRGIPVLQESAKDPATKGLNQLVNRFNPAWRATSQRKLHRRVVV
MGSDKIHHHHHHMSRTVVISQPTYLPWLGYFELIAKSDVFVFLDNVQCVKQSWHNRNRLKGNDDQLIWLTVPVKAHPLDTPLSKIQILNNPSVWRRKHLGTIQTCLGSAVYFHTIFPFIQEFINYEYEYLVDLNISLIKLFADLLGLSPNFVKASDLNPQGRRTEMLVNLCQQLDADYYYSPMGSKVYIEEEKHLFIEEDIKLNYQIWEHPCYSQRGKIFVSHLSILDTLMNIGLEATRSLIIPNKLKDI
